Starred links: 1 amine or outer side, 2 acyl side, 3 side chain; linkers in the order of their positions; H or OH if unused. Positions of bridges follow the written chain, without caps; N, C: chain ends. Non-standard residues stand in square brackets, D forms with d. Primed or numbered codes have the meaning given here. (Pfbn)GAbu = (S)-2-amino-4-((carboxymethyl)((perfluorophenyl)methyl)amino)butanoic acid, O=C([C@H](CCN(CC(=O)[*:3])Cc1c(F)c(F)c(F)c(F)c1F)N[*:1])[*:2]; PyrS2″ = (S)-3-amino-1-((pent-4-en-1-yloxy)carbonyl)pyrrolidine-3-carboxylic acid (stapling residue), C=CCCCOC(=O)N1CC[C@@](N[*:1])(C(=O)[*:2])C1; (Tfb)GAbu = (S)-2-amino-4-((carboxymethyl)(4,4,4-trifluorobutyl)amino)butanoic acid, O=C([C@H](CCN(CCCC(F)(F)F)CC(=O)[*:3])N[*:1])[*:2]; B5(4) = 2,2-bis(4-pentenyl)glycine = 2-amino-2-(pent-4-en-1-yl)hept-6-enoic acid (stitching residue), C=CCCCC(CCCC=C)(N[*:1])C(=O)[*:2]; PyrS1 = (S)-3-amino-1-((but-3-en-1-yloxy)carbonyl)pyrrolidine-3-carboxylic acid, C=CCCOC(=O)N1CC[C@@](N[*:1])(C(=O)[*:2])C1; PyrS = (S)-1-((allyloxy)carbonyl)-3-aminopyrrolidine-3-carboxylic acid, C=CCOC(=O)N1CC[C@@](N[*:1])(C(=O)[*:2])C1; B5(19) = 2-amino-2-(pent-4-en-1-yl)hept-6-enoic acid (bis(4-pentenyl)glycine), C=CCCCC(CCCC=C)(N[*:1])C(=O)[*:2]; (Et)GAbu = (S)-2-amino-4-((carboxymethyl)(ethyl)amino)butanoic acid, CCN(CC[C@H](N[*:1])C(=O)[*:2])CC(=O)[*:3]; 2Nal = N[C@@H](Cc1ccc2ccccc2c1)C(=O)O; Bta = N[C@@H](Cc1csc2ccccc12)C(=O)O; Lys(iPr) = CC(C)NCCCC[C@H](N)C(=O)O; αAllylPro = C=CC[C@@]1(C(=O)O)CCCN1; tBuAla = CC(C)(C)C[C@H](N)C(=O)O; 3Thi = N[C@@H](Cc1ccsc1)C(=O)O
T1: B-cat-Halo (beta-catenin HaloTag construct expressed in HEK293 cells) (UniProt P35222 1-781)
T1 sequence (looked up): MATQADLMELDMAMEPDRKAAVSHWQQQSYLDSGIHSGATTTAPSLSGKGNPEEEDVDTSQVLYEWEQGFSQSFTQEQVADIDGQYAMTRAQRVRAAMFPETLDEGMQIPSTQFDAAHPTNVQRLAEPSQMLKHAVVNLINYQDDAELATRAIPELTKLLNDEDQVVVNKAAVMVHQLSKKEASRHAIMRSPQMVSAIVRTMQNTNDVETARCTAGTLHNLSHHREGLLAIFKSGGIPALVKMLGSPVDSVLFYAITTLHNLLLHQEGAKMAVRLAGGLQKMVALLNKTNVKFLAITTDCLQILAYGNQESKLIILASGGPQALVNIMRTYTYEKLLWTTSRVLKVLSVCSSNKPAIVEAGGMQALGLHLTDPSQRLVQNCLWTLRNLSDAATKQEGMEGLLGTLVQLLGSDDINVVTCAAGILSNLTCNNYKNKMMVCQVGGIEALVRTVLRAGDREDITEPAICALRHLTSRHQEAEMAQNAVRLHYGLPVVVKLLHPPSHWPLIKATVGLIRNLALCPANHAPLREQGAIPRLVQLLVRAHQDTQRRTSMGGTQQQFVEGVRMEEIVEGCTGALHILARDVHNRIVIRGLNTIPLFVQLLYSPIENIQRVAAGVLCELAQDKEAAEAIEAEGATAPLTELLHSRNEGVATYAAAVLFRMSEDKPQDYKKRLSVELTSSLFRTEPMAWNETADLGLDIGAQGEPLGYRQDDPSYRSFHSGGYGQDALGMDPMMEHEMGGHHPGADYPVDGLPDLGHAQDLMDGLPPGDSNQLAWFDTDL

T2: full-length beta-Catenin (Uniprot ID P35222) (Homo sapiens (Human), UniProt P35222 2-781)
T2 construct: full-length beta-Catenin (Uniprot ID P35222); also called bCat; B-Catenin
T2 sequence: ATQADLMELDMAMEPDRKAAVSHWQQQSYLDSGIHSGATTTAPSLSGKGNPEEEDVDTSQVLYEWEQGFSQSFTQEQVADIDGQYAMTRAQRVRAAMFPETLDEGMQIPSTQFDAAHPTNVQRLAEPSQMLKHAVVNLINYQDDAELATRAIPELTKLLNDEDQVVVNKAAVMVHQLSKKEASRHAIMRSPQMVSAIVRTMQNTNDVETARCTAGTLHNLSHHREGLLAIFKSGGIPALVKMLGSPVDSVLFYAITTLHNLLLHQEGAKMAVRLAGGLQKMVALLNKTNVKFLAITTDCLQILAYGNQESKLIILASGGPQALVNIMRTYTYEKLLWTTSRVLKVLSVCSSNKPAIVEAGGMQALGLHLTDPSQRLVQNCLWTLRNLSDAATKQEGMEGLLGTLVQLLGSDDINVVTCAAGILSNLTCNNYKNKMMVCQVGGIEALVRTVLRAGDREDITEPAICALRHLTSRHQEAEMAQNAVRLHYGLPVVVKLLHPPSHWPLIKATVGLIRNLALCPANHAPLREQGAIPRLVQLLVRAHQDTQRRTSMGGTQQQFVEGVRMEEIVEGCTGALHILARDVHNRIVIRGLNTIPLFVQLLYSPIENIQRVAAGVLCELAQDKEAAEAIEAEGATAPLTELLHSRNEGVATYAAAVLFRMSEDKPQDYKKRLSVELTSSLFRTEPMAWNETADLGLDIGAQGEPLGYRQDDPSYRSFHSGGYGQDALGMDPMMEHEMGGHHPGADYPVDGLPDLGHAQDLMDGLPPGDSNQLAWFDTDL


What follows are binders tested against T1, B-cat-Halo (beta-catenin HaloTag …) (assay: cell-based or functional assay).

| NanoBRET Abs IC50 [µM] | Binder |
| --- | --- |
| 7.9 | Ac-[αAllylPro]D[tBuAla][B5(4)]D[(Pfbn)GAbu]AAFL[PyrS2″][3Thi][Bta]Q-NH2 (staple 1-4, 4-11) [I-1838] |
| > 20 | Ac-[αAllylPro]D[tBuAla][B5(19)]DDAAFL[PyrS1][3Thi][Bta]Q-NH2 (staple 1-4, 4-11; also: staple olefins reduced to CH2-CH2) [I-1822] |
| > 20 | Ac-[αAllylPro]D[tBuAla][B5(19)]DDAAFL[PyrS][3Thi][Bta]Q-NH2 (staple 1-4, 4-11) [I-1818] |
| 18.5 | Ac-[αAllylPro]D[tBuAla][B5(4)]D[(Tfb)GAbu]AAFL[PyrS2″][3Thi][Bta]Q-NH2 (staple 1-4, 4-11) [I-1837] |
| 31.9 | Ac-[αAllylPro]D[tBuAla][B5(4)]D[(Et)GAbu]AAFL[PyrS2″][3Thi][Bta]Q-NH2 (staple 1-4, 4-11) [I-1835] |

These binders were tested against T2, full-length beta-Catenin (Uniprot ID …) (assay: fluorescence polarization competition; full-length beta-catenin + 5FAM-TCF4 10-53 probe, peptide titrated).
Procedure: The plate was incubated protected from light for 60 minutes at 20° C. prior to read. Reads were performed on a CLARIOstar plate reader (BMG Labtech) in duplicate, and data were fitted to a 1:1 binding model with hill slope using an in-house script. All provided concentrations are final concentrations.

| IC50 [µM] | Binder |
| --- | --- |
| 4.21 | Ac-[αAllylPro]DA[B5(4)]NT[Lys(iPr)]AFL[PyrS2″]F[Bta]Q-NH2 (staple 1-4, 4-11, also called Ac-PL3-Asp-Ala-B5-Asn-Thr-iPrLys-Ala-Phe-Leu-PyrS2-Phe-BztA-Gln-NH2) [I-1376] |
| 1 | Ac-[αAllylPro]DA[B5(4)]NT[Lys(iPr)]AFL[PyrS2″]F[Bta]K-NH2 (staple 1-4, 4-11, also called Ac-PL3-Asp-Ala-B5-Asn-Thr-iPrLys-Ala-Phe-Leu-PyrS2-Phe-BztA-Lys-NH2) [I-1377] |
| 1.44 | Ac-[αAllylPro]DA[B5(4)]NQ[Lys(iPr)]AFL[PyrS2″]F[Bta]Q-NH2 (staple 1-4, 4-11, also called Ac-PL3-Asp-Ala-B5-Asn-Gln-iPrLys-Ala-Phe-Leu-PyrS2-Phe-BztA-Gln-NH2) [I-1379] |
| 6.17 | Ac-[αAllylPro]DA[B5(4)]NT[Lys(iPr)]AFL[PyrS2″]F[Bta]T-NH2 (staple 1-4, 4-11, also called Ac-PL3-Asp-Ala-B5-Asn-Thr-iPrLys-Ala-Phe-Leu-PyrS2-Phe-BztA-Thr-NH2) [I-1378] |
| 10 | Ac-[αAllylPro]DA[B5(4)]NK[Lys(iPr)]AFL[PyrS2″]F[Bta]Q-NH2 (staple 1-4, 4-11, also called Ac-PL3-Asp-Ala-B5-Asn-Lys-iPrLys-Ala-Phe-Leu-PyrS2-Phe-BztA-Gln-NH2) [I-1380] |
| 10 | Ac-[αAllylPro]DA[B5(4)]NT[Lys(iPr)]AFL[PyrS2″]F[2Nal]Q-NH2 (staple 1-4, 4-11, also called Ac-PL3-Asp-Ala-B5-Asn-Thr-iPrLys-Ala-Phe-Leu-PyrS2-Phe-2NapA-Gln-NH2) [I-1381] |
| 2.85 | Ac-[αAllylPro]NA[B5(4)]DT[Lys(iPr)]AFL[PyrS2″]F[Bta]Q-NH2 (staple 1-4, 4-11, also called Ac-PL3-Asn-Ala-B5-Asp-Thr-iPrLys-Ala-Phe-Leu-PyrS2-Phe-BztA-Gln-NH2) [I-1382] |
| 1.66 | Ac-[αAllylPro]NA[B5(4)]DT[Lys(iPr)]AFL[PyrS2″]F[Bta]K-NH2 (staple 1-4, 4-11, also called Ac-PL3-Asn-Ala-B5-Asp-Thr-iPrLys-Ala-Phe-Leu-PyrS2-Phe-BztA-Lys-NH2) [I-1383] |
| 10 | Ac-[αAllylPro]NA[B5(4)]DT[Lys(iPr)]AFL[PyrS2″]F[Bta]T-NH2 (staple 1-4, 4-11, also called Ac-PL3-Asn-Ala-B5-Asp-Thr-iPrLys-Ala-Phe-Leu-PyrS2-Phe-BztA-Thr-NH2) [I-1384] |

— patent publication US20240116985A1 (published 2024)
